# Biological target: mAb 2H1
# Test: VLP library affinity selection on 2H1, clones sequenced
row,Substance,copies among sequenced affinity-selected clones
1,DTQCQF (peptide),17 copies
2,WDATLQPA (peptide),2 copies
3,WTADLQPE (peptide),1 copy

# Biological target: 2C7 antibody
# Test: VLP library affinity selection on 2C7, clones sequenced
row,Substance,copies among sequenced affinity-selected clones
1,ELWRGT (peptide),2 copies
2,LDYEGN (peptide),1 copy
3,LDYERI (peptide),3 copies
4,LDYMRT (peptide),4 copies
5,LDYQRV (peptide),7 copies
6,PLWKGN (peptide),1 copy
7,PLWRGT (peptide),1 copy
8,VDYERI (peptide),2 copies
